To fix the notation:
B1: FCHO1 (parent)
chain: FSDPSQSDPETKDFWLNMAALTEA
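Further: lentivirally expressed fusions sorted by FACS into six bins by GFP to DsRed ratio, PSI derived from sequencing read proportions per bin multiplied by bin number.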

The data set covers variants of B1. The data set can be described thus: protein stability index of a GFP-peptide fusion (GPS, HEK-293T) (PSI 1-6); higher = more stable. The settings on record: c terminus: a fixed tail appended.
As for FSDPSLSDPETKDFWLNMAALTEA [Q6L], the protein stability index is 2.55.
For FSDPSPSDPETKDFWLNMAALTEA [Q6P] the value was 3.16; for FSDPSNSDPETKDFWLNMAALTEA [Q6N], 2.56.
With FSDPSASDPETKDFWLNMAALTEA [Q6A], the protein stability index turned out to be 2.91.
Regarding FSVPSQSDPETKDFWLNMAALTEA [D3V], the protein stability index amounted to 1.45.
On to FSHPSQSDPETKDFWLNMAALTEA [D3H], for which the protein stability index came out at 1.69.
Consider FSQPSQSDPETKDFWLNMAALTEA [D3Q], for which the protein stability index is 2.08.
Take FSFPSQSDPETKDFWLNMAALTEA [D3F]: the protein stability index was determined as 2.1.
In the case of FSGPSQSDPETKDFWLNMAALTEA [D3G], the protein stability index stood at 1.74.
For the variant FSCPSQSDPETKDFWLNMAALTEA [D3C], the protein stability index was determined as 2.23.
Regarding FSIPSQSDPETKDFWLNMAALTEA [D3I], the protein stability index is 1.71.
On to FSKPSQSDPETKDFWLNMAALTEA [D3K], for which the protein stability index is 1.48.
For FSAPSQSDPETKDFWLNMAALTEA [D3A] the value was 1.45; for FSDPSQSDPETKDDWLNMAALTEA [F14D], 4.88.
Regarding FSDPSQSDPETKDCWLNMAALTEA [F14C], the protein stability index amounted to 4.11.
In the case of FSDPSQSDPETKDHWLNMAALTEA [F14H], the protein stability index was 4.51.
In the case of FSDPSQSDPETKDLWLNMAALTEA [F14L], the protein stability index amounted to 3.69.
For FSDPSQSDPETKDRWLNMAALTEA [F14R] the value was 4.62; for FSDPSQSDPETKDMWLNMAALTEA [F14M], 4.12.
Regarding FSDPSQSDPETKDPWLNMAALTEA [F14P], the protein stability index was 4.58.
As for FSDPSQSDPETKDKWLNMAALTEA [F14K], the protein stability index was determined as 4.72.
FSDPSQSDPETKDYWLNMAALTEA [F14Y]: the protein stability index is 3.98.
For FSDPSQSDPETKDWWLNMAALTEA [F14W] the value was 3.87.
On to FSDPSQSPPETKDFWLNMAALTEA [D8P], for which the protein stability index worked out at 2.93.
On to FSDPSQSGPETKDFWLNMAALTEA [D8G], for which the protein stability index worked out at 2.75.
With FSDPSQSSPETKDFWLNMAALTEA [D8S], the protein stability index was found to be 2.71.
For FSDPSQSKPETKDFWLNMAALTEA [D8K] the value was 2.32; for FSDPSQSCPETKDFWLNMAALTEA [D8C], 2.62.
Turning to FSDPSQSHPETKDFWLNMAALTEA [D8H], the protein stability index was 2.21.
Consider FSDPSQSTPETKDFWLNMAALTEA [D8T], for which the protein stability index stood at 2.81.
On to FSDPSQSYPETKDFWLNMAALTEA [D8Y], for which the protein stability index was 2.23.
For FSDPSQSIPETKDFWLNMAALTEA [D8I], the protein stability index stood at 2.9.
Consider FSDPSQSVPETKDFWLNMAALTEA [D8V], for which the protein stability index turned out to be 3.11.
In the case of FSDPSQSDPETKHFWLNMAALTEA [D13H], the protein stability index came to 2.02.
Consider FSDPSQSDPETKRFWLNMAALTEA [D13R], for which the protein stability index turned out to be 1.97.
For FSDPSQSDPETKKFWLNMAALTEA [D13K] the value was 2.33; for FSDPSQSDPETKIFWLNMAALTEA [D13I], 1.75; for FSDPSQSDPETKWFWLNMAALTEA [D13W], 1.65.
With FSDPSQSDPETKLFWLNMAALTEA [D13L], the protein stability index amounted to 1.82.
For FSDPSQSDPETKNFWLNMAALTEA [D13N] the value was 1.27; for FSDPSQSDPETKEFWLNMAALTEA [D13E], 3.62.
For FSDPSQSDPETKFFWLNMAALTEA [D13F], the protein stability index was 1.88.
Regarding FSDQSQSDPETKDFWLNMAALTEA [P4Q], the protein stability index came out at 2.67.
FSDKSQSDPETKDFWLNMAALTEA [P4K]: the protein stability index is 2.04.
Consider FSDLSQSDPETKDFWLNMAALTEA [P4L], for which the protein stability index stood at 2.45.
FSDESQSDPETKDFWLNMAALTEA [P4E]: the protein stability index came out at 3.37.
With FSDYSQSDPETKDFWLNMAALTEA [P4Y], the protein stability index was found to be 1.85.
In the case of FSDISQSDPETKDFWLNMAALTEA [P4I], the protein stability index is 3.33.
With FSDWSQSDPETKDFWLNMAALTEA [P4W], the protein stability index is 1.85.
As to FSDDSQSDPETKDFWLNMAALTEA [P4D], the protein stability index was 3.49.
As for FSDFSQSDPETKDFWLNMAALTEA [P4F], the protein stability index is 2.16.
With FSDPSQSDPETKDFWLNMAALKEA [T22K], the protein stability index came to 2.61.
As to FSDPSQSDPETKDFWLNMAALAEA [T22A], the protein stability index is 2.87.
Take FSDPSQSDPETKDFWLNMAALWEA [T22W]: the protein stability index is 3.27.
Regarding FSDPSQSDPETKDFWLNMAALIEA [T22I], the protein stability index stood at 2.86.
In the case of FSDPSQSDPETKDFWLNMAALGEA [T22G], the protein stability index is 2.53.
On to FSDPSQSDPETKDFWLNMAALVEA [T22V], for which the protein stability index worked out at 3.44.
As to FSDPSQSDPETKDFWLNMAALEEA [T22E], the protein stability index turned out to be 3.66.
For FSDPSQSDPETKDFWLNMAALMEA [T22M] the value was 3.02.
As to FSDPSQSDPETKDFWLNMAALSEA [T22S], the protein stability index was found to be 2.34.
Take FSDPSQSDPETKDFHLNMAALTEA [W15H]: the protein stability index was determined as 4.73.
Turning to FSDPSQSDPETKDFSLNMAALTEA [W15S], the protein stability index stood at 4.82.
Take FSDPSQSDPETKDFMLNMAALTEA [W15M]: the protein stability index came out at 4.48.
As for FSDPSQSDPETKDFGLNMAALTEA [W15G], the protein stability index is 4.65.
Consider FSDPSQSDPETKDFALNMAALTEA [W15A], for which the protein stability index came out at 4.88.
Consider FSDPSQSDPETKDFKLNMAALTEA [W15K], for which the protein stability index came to 4.85.
For FSDPSQSDPETKDFQLNMAALTEA [W15Q], the protein stability index was found to be 4.45.
Regarding FSDPSQSDPETKDFTLNMAALTEA [W15T], the protein stability index was 4.38.
For the variant FSDPSQSDPETKDFILNMAALTEA [W15I], the protein stability index was found to be 4.43.
Consider FSDPSQSDPETKDFCLNMAALTEA [W15C], for which the protein stability index was 4.62.
For FSDPSQSDPETKDFWLNDAALTEA [M18D] the value was 4.25; for FSDPSQSDPETKDFWLNHAALTEA [M18H], 3.22.
Turning to FSDPSQSDPETKDFWLNEAALTEA [M18E], the protein stability index was determined as 3.98.
Turning to FSDPSQSDPETKDFWLNSAALTEA [M18S], the protein stability index stood at 3.12.
Take FSDPSQSDPETKDFWLNNAALTEA [M18N]: the protein stability index worked out at 3.55.
FSDPSQSDPETKDFWLNFAALTEA [M18F]: the protein stability index was determined as 2.78.
Regarding FSDPSQSDPETKDFWLNMAANTEA [L21N], the protein stability index came out at 2.88.
FSDPSQSDPETKDFWLNMAATTEA [L21T]: the protein stability index amounted to 2.75.
For FSDPSQSDPETKDFWLNMAAFTEA [L21F] the value was 2.1; for FSDPSQSDPETKDFWLNMAAWTEA [L21W], 1.73.
Turning to FSDPSQSDPETKDFWLNMAARTEA [L21R], the protein stability index is 2.95.
Consider FSDPSQSDPETKDFWLNMAAVTEA [L21V], for which the protein stability index was 2.58.
Turning to FSDPSQSDPETKDFWLNMAAPTEA [L21P], the protein stability index is 2.32.
Consider FSDPSQSDPETKDFWLNMAAHTEA [L21H], for which the protein stability index turned out to be 2.55.
For the variant FSDPSQSDPETKDFWLQMAALTEA [N17Q], the protein stability index is 3.39.
Take FSDPSQSDPETKDFWLEMAALTEA [N17E]: the protein stability index came to 3.49.
For the variant FSDPSQSDPETKDFWLKMAALTEA [N17K], the protein stability index was determined as 2.91.
As for FSDPSQSDPETKDFWLLMAALTEA [N17L], the protein stability index is 2.43.
For FSDPSQSDPETKDFWLGMAALTEA [N17G], the protein stability index was 2.67.
Take FSDPSQSDPETKDFWLVMAALTEA [N17V]: the protein stability index was 1.88.
FSDPSQSDPETKDFWLIMAALTEA [N17I]: the protein stability index amounted to 1.98.
With FSDPSQSDPETKDFWLRMAALTEA [N17R], the protein stability index was determined as 3.06.
Consider FSDPSQSDPETKDFWLSMAALTEA [N17S], for which the protein stability index was 2.49.
FSDPSQSDPETKDFWLCMAALTEA [N17C]: the protein stability index was 2.41.

The values above are taken from the supplement of paper PMC10567573.
